Consider one substance from article doi:10.1101/2024.07.10.602906.

Test [1] addresses GV CW1 murine norovirus VP1 P-domain (wild type) (murine norovirus (GV, MNV-1 CW1)) (UniProt Q80J95). Nature of the test: NMR titration.
The target is the same in test [2]. Description: methyl TROSY NMR.

A word on the Kd: it is a measure of binding affinity in units of concentration. Low values mean tighter binding, high ones weaker binding. Broadly, the koff is the rate constant with which the complex falls apart. A higher koff goes with fast dissociation.

In test [1], “GV CW1 murine norovirus VP1 P-domain (wild type) (from UniProt Q80J95 228-530) (domain or fragment)” registered a Kd of 45 µM and an off-rate (koff) of 4.7 s⁻¹. In test [2], this substance had a percent dimers at pH* 5.3 of more than 70% and a percent monomers at pH 7.4 of 70%.
